Reference: the supplement of paper PMC9732359
± gives the uncertainty stated by the source.

Experiment: protein stability index of a GFP-peptide fusion (yeast GPS) (PSI 1-4); higher = more stable; sorted into four equal gates, so the index is relative within each strain
How it was run: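 Sequencing reads from sorted gates were used to score each peptide. The library consisted of tiled 17-residue yeast protein peptides fused downstream of GFP on a Cherry-expressing plasmid, pooled and carried in yeast. Mid-log cultures in leucine-free medium were split into four equal gates by GFP/Cherry ratio, and each gate's plasmids were PCR-amplified and Illumina-sequenced. The protein stability index adds up, over all gates, the read frequency multiplied by the gate number.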

| Sequence | protein stability index (doa10∆) | protein stability index (pdr5∆) | protein stability index (san1∆) | protein stability index (ubr1∆) |
| --- | --- | --- | --- | --- |
| LATLHYQKKQYKDSLAL [RPN6] | 1.91 ± 0.28 | 1.47 ± 0.17 | 2.62 ± 0.19 | 2.14 ± 0.23 |
| YTMSNHGMSVDPRHIQL [RPO31] | 2.85 ± 0.066 | 2.91 ± 0.083 | 2.94 ± 0.053 | 3.01 ± 0.044 |
| SSIHAIGSIKEDYLGAI [RPB7] | 2.61 ± 0.076 | 2.74 ± 0.064 | 2.71 ± 0.067 | 3.01 ± 0.095 |
| ETIENVKLQMIKFGGLI [ECM29] | 3.53 ± 0.1 | 3.37 ± 0.17 | 3.18 ± 0.11 | 3.26 ± 0.07 |
| QRDAVTLFCCLLRSRLA [RPO21] | 1.78 ± 0.045 | 1.92 ± 0.044 | 1.85 ± 0.057 | 1.98 ± 0.041 |
| ENLVQGNGNVSESDIIN [YCG1] | 3.78 ± 0.29 | – | – | – |
| LALSGTSASNTSMNGVH [SNF5] | 2.48 ± 0.073 | 2.73 ± 0.16 | – | 3.05 ± 0.14 |
| TENEIPNLIEKMVAKGL [BRR2] | 2.85 ± 0.17 | 2.81 ± 0.13 | 2.63 ± 0.093 | 2.78 ± 0.11 |
| VGSLVVKSSMGPAFRLY [RPL1A] | 3.07 ± 0.059 | 2.95 ± 0.055 | 3.14 ± 0.051 | 2.73 ± 0.055 |
| YPVLRKLYKKIAKFERS [YIL149C/MLP2] | 2.42 ± 0.079 | 1.99 ± 0.06 | 2.56 ± 0.071 | 2.88 ± 0.039 |
| TNWARTTFRNEYGKHDF [MED8] | 2.82 ± 0.097 | 2.56 ± 0.079 | 2.91 ± 0.088 | 3.55 ± 0.19 |
| PRLDDVVVDTVECAQHC [SMC4] | 3.22 ± 0.1 | 3.31 ± 0.13 | 3.17 ± 0.092 | 2.75 ± 0.13 |
| PITASMAAALPNPTPSM [PGD1] | 2.47 ± 0.083 | 2.54 ± 0.066 | 2.55 ± 0.073 | 2.51 ± 0.067 |
| TSSLQLYKFQNFQDLSY [YML103C/NUP188] | 2.81 ± 0.065 | 3.04 ± 0.064 | 2.84 ± 0.055 | 2.65 ± 0.071 |
| KPNIILDEDDTNDGIER [RPC31] | 3.42 ± 0.076 | 3.27 ± 0.085 | 3.31 ± 0.051 | 3.27 ± 0.043 |
| RPTGGANMATVPSTTNV [MED6] | 2.66 ± 0.062 | 2.93 ± 0.06 | 2.42 ± 0.17 | 2.91 ± 0.04 |
| SRNNTLNVTPSKRPQLG [SIR4] | 2.96 ± 0.1 | 2.97 ± 0.093 | 2.8 ± 0.096 | 2.85 ± 0.073 |
| YWFPLAHFLSLSFTPTT [RPN2] | 1.65 ± 0.036 | 1.34 ± 0.033 | 1.19 ± 0.076 | 1.19 ± 0.028 |
| ESSELNKDSIEECGRTI [CSN12] | 3.46 ± 0.18 | 2.92 ± 0.16 | 3.42 ± 0.089 | 3.28 ± 0.15 |
| SSFYINHASMDVYNREL [BRR2] | 3.02 ± 0.12 | 2.96 ± 0.1 | 3.04 ± 0.076 | 3.17 ± 0.09 |
| LNLLNYQELFIQPKNSD [YML103C/NUP188] | 2.57 ± 0.06 | 2.21 ± 0.056 | 2.35 ± 0.054 | 2.3 ± 0.045 |
| DVYTLPSYVHFKVQIIE [YML103C/NUP188] | 1.61 ± 0.055 | 1.71 ± 0.05 | 1.43 ± 0.069 | 1.66 ± 0.033 |
| RYNVEKVKRLMDFLEED [NSL1] | 2.08 ± 0.098 | 1.26 ± 0.16 | – | 2.25 ± 0.19 |
| FQIVIEPLAIALSMGKS [ARP7] | 1.42 ± 0.054 | 1.71 ± 0.059 | 1.52 ± 0.092 | 1.5 ± 0.07 |
| QLGYGKFLILNENPINK [NUT1] | 2.92 ± 0.12 | 2.53 ± 0.12 | 2.71 ± 0.077 | 2.84 ± 0.13 |
| IELDQVLNMLYWVPDWD [RPO21] | 2.84 ± 0.095 | 2.32 ± 0.068 | 2.17 ± 0.11 | 2.51 ± 0.057 |

| Sequence | protein stability index (doa10∆) | protein stability index (pdr5∆) | protein stability index (san1∆) | protein stability index (ubr1∆) |
| --- | --- | --- | --- | --- |
| QYNIPPEREVLVRELYQ [RRP6] | 2.52 ± 0.061 | 2.15 ± 0.089 | 2.37 ± 0.14 | 2.17 ± 0.083 |
| NGLKDQLNEERSRYRRE [YIL149C/MLP2] | 2.77 ± 0.19 | 2.5 ± 0.22 | – | 2.86 ± 0.17 |
| PAINYTKLKNAVQNESV [QCR2] | 1.9 ± 0.064 | 1.79 ± 0.059 | 2.2 ± 0.092 | 1.54 ± 0.048 |
| LQRHSGISSTLVSANND [YLR018C/POM34] | 2.7 ± 0.052 | 2.87 ± 0.064 | 2.96 ± 0.062 | 2.94 ± 0.07 |
| WWTNSHHDGKLWNLNAY [PRP8] | 2.9 ± 0.21 | 2.76 ± 0.14 | 2.98 ± 0.082 | 2.45 ± 0.14 |
| MISEVPSVAAEYVYFFN [RPC40] | 1.53 ± 0.11 | 1.13 ± 0.091 | 1.23 ± 0.11 | 1.07 ± 0.079 |
| MSAQKAPKWYPSEDVAA [RPL6A] | 2.03 ± 0.12 | 2.35 ± 0.13 | 1.57 ± 0.27 | 2.1 ± 0.071 |
| TKMDGHARGGGAISAVA [SRP54] | – | – | 3.51 ± 0.14 | 3.62 ± 0.26 |
| SAQSIASAKSVRSGVSK [YAR002W/NUP60] | 2.88 ± 0.072 | 2.93 ± 0.092 | 3 ± 0.069 | 2.96 ± 0.057 |
| IVHSSDGHLQFLNDVIP [DLS1] | 2.99 ± 0.082 | 2.75 ± 0.077 | 2.6 ± 0.16 | 2.51 ± 0.088 |
| DAKKCIAACTGVPDDKW [FAS1] | 2.63 ± 0.092 | 2.35 ± 0.058 | 2.16 ± 0.11 | 2.78 ± 0.071 |
| QILSVAIPNGIHLQRFD [RPO21] | 2.41 ± 0.1 | 2.33 ± 0.075 | 1.94 ± 0.1 | 2.77 ± 0.079 |
| WTELCQREFKEIMEERN [NNF1] | 2.98 ± 0.21 | 3.41 ± 0.16 | 3.13 ± 0.072 | 3.2 ± 0.074 |
| DDLQSSVIPEVDREAML [YCG1] | 2.63 ± 0.085 | 2.71 ± 0.081 | 2.48 ± 0.12 | 2.4 ± 0.078 |
| SLNLGIGIVEIAHENEQ [SRB8] | 1.43 ± 0.11 | 2.07 ± 0.084 | 2.52 ± 0.11 | 2.08 ± 0.087 |
| CKLTLDINVELFPVAAQ [RPB8] | 2.57 ± 0.063 | 2.24 ± 0.079 | 2.43 ± 0.078 | 2.96 ± 0.05 |
| YFQQTTIDWVEAGLQLC [PRP8] | 3.53 ± 0.11 | 3.19 ± 0.099 | 3.2 ± 0.064 | 3.04 ± 0.1 |
| SDSEIPPLLVYKWTQGI [PRP8] | 2.3 ± 0.056 | 2.36 ± 0.057 | 2.26 ± 0.068 | 2.07 ± 0.074 |
| MKLNILDERFASRVALN [IRR1] | 1.54 ± 0.051 | 2.31 ± 0.062 | 2.17 ± 0.11 | 2.03 ± 0.054 |
| ECATCHGNLASCHGHFG [RPO31] | 2.9 ± 0.072 | 3.17 ± 0.12 | 2.92 ± 0.067 | 3.04 ± 0.056 |
| TKNNTQASGITAGAAAN [SSN3] | 1.86 ± 0.094 | 2.08 ± 0.051 | 2.07 ± 0.11 | 1.97 ± 0.062 |
| KKLELPKYIDELKTRDA [SWP82] | 3.03 ± 0.097 | 3.39 ± 0.092 | 2.78 ± 0.077 | 3.48 ± 0.071 |
| ANVQRLKEYQSKIIVFP [RPL13A] | 2.93 ± 0.076 | 3.03 ± 0.093 | 3.05 ± 0.092 | 3 ± 0.067 |
| QLLDTSNQRFKDLQWLE [SIN4] | 3.02 ± 0.066 | 2.96 ± 0.076 | 2.88 ± 0.06 | 2.91 ± 0.043 |
| SSIDKIEDRDFLVRYAC [SIR3] | 2.9 ± 0.17 | – | – | 3.02 ± 0.21 |
